Experimental data taken from patent US20220340655A1 (OPSIDIO, published 2022).

Target: human stem cell factor isoform SCF248 (human, UniProt P21583 26-273)
Assay: flow cytometry on S1/S14 hSCF248 cells; printed as BC50 (50% maximal binding)

Chain of human stem cell factor isoform SCF248 (P21583 26-189): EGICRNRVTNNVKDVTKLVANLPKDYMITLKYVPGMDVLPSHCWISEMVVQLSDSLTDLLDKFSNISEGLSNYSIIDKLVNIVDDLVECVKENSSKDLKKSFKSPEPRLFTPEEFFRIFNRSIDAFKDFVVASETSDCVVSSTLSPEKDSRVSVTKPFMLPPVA

B1: 5H10 VH3/VK3 (antibody, human IgG4, V domains shown)
VH: QVQLVQSGAEVKKPGSSVKVSCKSSGYAFSSYWMNWVRQRPGQGLEWIGQIYPGDGDTHYNGKFKGKATLTADKSTSTAYMELSSLRSEDTAVYFCSSSNWVGSYWGQGTLVTVSS
VL: DVVMTQSPLSLPVTLGQPASISCKSSQSLLESDGKTYLNWLQQRPGQSPRRLIYLVSRLDSGVPDRFSGSGSGTDFTLKISRVEAEDVGVYYCWQGTHLPQTFGGGTKVEIK
notes: Humanized; only variable regions are tied to the name
B1 was tested, and the EC50 was 0.9 µg/mL.
